Experimental findings from the supplement of paper PMC12042874 are described below.

± gives the uncertainty stated by the source.

A short description of this data set: amyloid nucleation score (Sup35N fusion, yeast selection) (log enrichment); library NNK3; higher = more nucleation; inactive = no reads after selection. Put shortly: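 Yeast lacking psi expressed peptides of 20 random codons fused to Sup35N, received 100 μM copper sulfate for 24 hours, and were then grown for 7 days at 30°C on medium lacking adenine and uracil. Illumina sequencing of input and output plasmid inserts provided the reads. Nucleation scores are DiMSum log enrichments of output over input, centred on the mode of non-aggregating sequences. Any sequence with under 100 input reads was excluded.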
For the substance CEWNS, the amyloid nucleation score entry was “inactive”.
To SRYIRGTLCRAVSVNRPHVH belongs “inactive”; to DWYMTVW, “inactive”; to LFADWQG, “inactive”.
FWFYATLMGEQDK: the amyloid nucleation score is -0.331 ± 0.9.
With SYYMTKLVFLCPLW, the amyloid nucleation score result is “inactive”.
The result for TLSLACGSYVQCSMEFLSSG reads 1.6 ± 0.08; that for CVFDSCSSLYKDMYTLCHVS, “inactive”.
With FHIPLSQRCLAPFCNAHL, the amyloid nucleation score entry is “inactive”.
The result for SSGNFA reads “inactive”; that for AIPSMSSRTLNQVSPIDPDL, 0.706 ± 0.17; that for PRDNILTPQHV, “inactive”.
The result for MLFSIICNFGNKFLTYKEFT reads 0.89 ± 0.24; that for LQEGSN, “inactive”; that for IQFLTNKQALLEKFPGKSPW, “inactive”.
The result for HELLMVSENVRCDAKSHG reads “inactive”; that for MTYGLFVIYMRGGSNLMLHV, “inactive”; that for GWSLGARSNYGLSTGQRGCA, “inactive”.
As to LNNRA, the amyloid nucleation score result is “inactive”.
In turn, VGAHSYHVRTPDTES showed an amyloid nucleation score of 0.221 ± 0.47.
The result for WPSYSRLQTDFRGTGFFFRG reads “inactive”.
The result for NDCLFNKILAVRSFTLLAGK reads “inactive”; that for CSSRMVFLRHLAGFLWGRPP, 0.038 ± 0.85; that for VYFRVFCFVSLCGVY, -0.548 ± 0.9.
The result for VRSTYGNKGFVSQRGLQFSP reads “inactive”.
In the case of ITGVFCTSHVRFNINFKLWE, the amyloid nucleation score was 1.97 ± 0.063.
To SIGQHWLGS belongs “inactive”.
The result for RLMNFVPSFVFCCFYKK reads 1.27 ± 0.14; that for TKCVLNGRRLSLCPLDNSMR, “inactive”.
For YNPIGFRRLFTPTCLFITKL, the amyloid nucleation score result is “inactive”.
The result for SSLIFLFDGKHRVLIYNLSN reads 0.482 ± 0.47; that for PPPCKYLPAEVGLLFKSSLG, “inactive”; that for QHSSLKWYLYDYRFLLYTVL, -0.562 ± 0.5.
The result for FLVPTLHYYLGRWQKKPMLY reads “inactive”; that for MLDRCD, “inactive”; that for LAFYNQHWNFSMRSGMQGFK, 1.05 ± 0.23.
To NVCRLRIFRSVYLLGYYTST belongs “inactive”.
Turning to SSLQHSAW, the amyloid nucleation score entry was “inactive”.
The result for SWRAVRRALLGRCNGSRVLV reads “inactive”; that for ECMRNTPLTQSTATTMTTGF, “inactive”.
To SAVYIDA belongs “inactive”.
To GLPLEWDDSWNVKIVLLCWS belongs “inactive”; to KRCIYKSNGI, “inactive”.
In the case of VQGIPELALMLSRARGRGV, the amyloid nucleation score entry is “inactive”.
The result for LPGNLYFYVTGTCDNYLTVW reads “inactive”; that for EFQNFLVSFYEMYLQSPK, “inactive”.
The result for PRFMKVRRWYSNLM reads “inactive”; that for RSTDTFWACCSDKTLSLWSA, “inactive”.
In the case of EYNPQLSRNSNDLYADELKE, the amyloid nucleation score entry was “inactive”.
Turning to ASSKCYINKRSNPGRRGLYG, the amyloid nucleation score result was “inactive”.
To LSCHTKETFPDDG belongs “inactive”; to LICIQCWFYDSYHTQQLWGL, 2.16 ± 0.056; to EEGCYHLLNNLGRNCSECNG, “inactive”.
The result for LSMPMAAGCFKHMPCAA reads -0.643 ± 1.7; that for GIDDDCARHIYWGRFLIGSC, -0.241 ± 1.1.
To VIGGVEREQQDRLKL belongs “inactive”; to WTESWYKYMNKDVSSHCKQS, “inactive”.
In turn, CYLVGLCLLFGVQVSGLPYR registered an amyloid nucleation score of 0.798 ± 0.26.
To CELGNIVHS belongs “inactive”; to TSFGMSTPCQAFARSVDDRG, “inactive”.
To CTSGLVVGLVFLMI belongs -0.716 ± 1.4.
The result for DYDGWESCFHFS reads “inactive”.
Turning to LFVLELVRIWVTYNWCSVSF, the amyloid nucleation score result was “inactive”.
The result for PELVFPMLADRPVRAQKLPC reads “inactive”; that for LTKYVVFSIY, 1.16 ± 0.094.
To SACSYYTMHHIFGAMFHN belongs “inactive”.
To IMIYSQPKGEASCFGCFRLG belongs 0.702 ± 0.17; to KAYISVIGKLDYQNFSMKRF, 2.41 ± 0.054.
Turning to RHAPNVLKYLAHFNDYRQWH, the amyloid nucleation score result was “inactive”.
Turning to TNGLVLHRSWLEFFLYYTQR, the amyloid nucleation score result was “inactive”.
To FKLHIWSS belongs “inactive”.
For CIDQTTLKHTLDNCLIFF, the amyloid nucleation score result was “inactive”.
The substance VLSVSLNACTIGWST showed an amyloid nucleation score of 1.34 ± 0.1.
For the substance RTECYVYKYDALDSRLGYCD, the amyloid nucleation score was -0.18 ± 0.62.
The result for CHPLGRCALWWCFVPHGRFA reads “inactive”; that for WYGCVAWYVVKSMFYS, “inactive”.
For the substance MGLGGHIVLSGCSWFMYHIG, the amyloid nucleation score entry is “inactive”.
To SEYYCYICLMVSIGFSANLL belongs “inactive”; to NSIFSVFIGMMPCLGSMENI, 3.1 ± 0.081; to NSWVNSPFNLS, “inactive”.
To KSFSR belongs “inactive”.
With LCSSLIM, the amyloid nucleation score result is “inactive”.
With SMKFC, the amyloid nucleation score result is “inactive”.
As for DYKRSMGFGWLTFVPYLAGN, the amyloid nucleation score entry was “inactive”.
To SFSKLVFR belongs “inactive”; to QMRVQMSCCFLGTCFSGRHW, 3.29 ± 0.056.
For APWVMLVVSFPRKESRSFGM, the amyloid nucleation score entry is “inactive”.
On to VIFVGFWQWYSYISELDCNP, for which the amyloid nucleation score result is “inactive”.
The result for SWGAWIGLWFRTGVLLDESA reads “inactive”.
The result for CMKLYRHFLNKASVHSDKGV reads “inactive”; that for GEDIL, “inactive”.
The result for KRYSIMFSKASQ reads 0.986 ± 0.15; that for SFVYVSALVSLHGGFADAKF, 0.885 ± 0.22.
Regarding EKLVTCKDYFNRASTVTSLG, the amyloid nucleation score result was “inactive”.
To RPFNRTYHILLYQMHYVRST belongs “inactive”; to KNKPEKRR, “inactive”.
To YLDLFLWIREMLYYTGSLRV belongs “inactive”; to FNLQL, 0.325 ± 0.57; to MSVTMMAKWTTLILGIGTGM, “inactive”.
Consider FSMSWTVDMKE, for which the amyloid nucleation score result is “inactive”.
The result for ISTRPSM reads “inactive”; that for QFIDRNVWLISSGFRTRFDI, “inactive”; that for YGIAMTQTIVSCSEIESKLR, “inactive”.
The result for LTLLHRKRMVLRYCNFMLYL reads “inactive”.
The result for LARRNTLVEGHDD reads “inactive”; that for FLSDSNT, “inactive”; that for LKDAHQWIYLW, -0.779 ± 0.88.
Take AIALLSPSDYVHSLGFHMVA: the amyloid nucleation score result is “inactive”.
The result for PHSYA reads “inactive”; that for LLYRWVGFHLIKLSVNAWLS, -1.01 ± 2.4; that for DVGSR, “inactive”.
To HTYLFRSMS belongs “inactive”; to RNGLSIGVNVGHLT, “inactive”.
To PIAFQRKSSCIKSRESGSVR belongs “inactive”; to VMYVVYFHELVYYR, “inactive”.
With EVVSLLTFMLASLLSISVVN, the amyloid nucleation score result is “inactive”.
The result for FNSMYRVELVHCCSHNKICD reads 1.41 ± 0.1; that for RQYWCFYQSWNSLG, “inactive”; that for SGSAQLECASSRAYVMIVHL, 0.425 ± 0.18.
The result for VARPCFRERNHSPI reads “inactive”.
Consider GISWILSVGGCTSRAWLWSW, for which the amyloid nucleation score result was “inactive”.
Regarding KLNSGEVFWQDTL, the amyloid nucleation score entry is “inactive”.
On to RSHGVLNLILCSPFLSDTGQ, for which the amyloid nucleation score was determined as 2.78 ± 0.074.
On to LRRTIYFTDDRCLWLDFAPL, for which the amyloid nucleation score amounted to 0.272 ± 0.43.
To LQWVRLVSRVQSTDCNLGAG belongs “inactive”; to SIGNCIFYTMAVFQWSTYTL, “inactive”.
Regarding VAFFSGWQIVVLFMKVL, the amyloid nucleation score result was “inactive”.
The result for FCAINP reads “inactive”.
Regarding TLLSFAHYHHLWSHLVYRSV, the amyloid nucleation score entry was “inactive”.
The result for PAPMSVFRHVNFFVKFSPSS reads “inactive”; that for SGFVRWRSISFLPNHERLST, “inactive”.
As to AWSDPSDQQPEQLRVVVDFL, the amyloid nucleation score entry was “inactive”.
The result for VRSKLYGPDVYPTHLGTAVM reads “inactive”.
